What was measured:
[1] = system: human primary lung fibroblasts; assay: FN and Col1α1 western blot in TGF-β-treated primary lung fibroblasts; format: cell-based; settings: normal human lung fibroblasts; TGF-β 10 ng/ml 24 h, then 5 μg/ml rE or peptide 48 h; vs TGF-β alone
Description: (§1) Human primary lung and skin fibroblasts were cultured. The explanted lungs of normal organ donors, patients with SSc or IPF, and clinically involved skin of SSc patients, a morphea patient and healthy donors were used for primary fibroblast culture. Approximately 2-cm pieces of peripheral lung and skin were minced and fibroblasts were cultured in Dulbecco's modified Eagle's medium (DMEM; Mediatech, Herndon, Va.) supplemented with 10% FBS, penicillin, streptomycin, and anti-mycotic agent, as previously described (Feghali et al., Arthritis Rheum 1999; 42:1451-7). All the cells were used between passages 3-6.
Cellular lysates were obtained from cultured fibroblasts as previously described (Pilewski et al., Am J Pathol 2005; 166:399-407). Briefly, 2.0×10^5 primary fibroblasts were cultured in 35-mm wells in 0.5% FBS-containing medium supplemented with 10 ng/ml of human recombinant TGF-β or PBS as vehicle control for 24 h, following which 5 μg/ml of human rE, endostatin peptides (E1-E4), or DMSO (vehicle) was added for 48 h. In some experiments, endostatin peptides were used without TGF-β stimulation. Cellular lysates were analyzed by western blot. Signals were detected following incubation with horseradish peroxidase-conjugated secondary antibody and chemiluminescence (Perkin Elmer Life Sciences, Inc., Boston, Mass.). The intensity of individual bands with expected molecular sizes was semi-quantitatively analyzed using the image/J® software available at on the internet (/rsb.info.nih.gov/ij/index.html), and normalized to individual GAPDH intensity.
To evaluate whether endostatin modulates production of ECM components in fibroblasts, FN and Col1α1 expression was examined in normal human lung fibroblasts by western blot analysis. Cells were treated with 5 µg/ml rE for 48 h with or without pre-stimulation with human TGF-β for 24 h. […] To define the functional domain of endostatin that mediates its inhibitory effect, four different peptides were synthesized corresponding to different regions of endostatin (Table 1).

mouse skin = assay: TGF-β-induced dermal fibrosis in vivo in mouse skin; settings: mice, intradermal, 10 μg/ml with TGF-β 10 ng/ml, one week post-injection
Description: FIG. 9. E4 reverses TGF β-induced dermal fibrosis even if administered 3 days following TGF-β.
CB57BL6/J male mice were purchased from The Jackson Laboratory (Bar Harbor, Me.). Human rE (10 μg/ml) or Endostatin peptides (10 μg/ml) in combination with TGF-β (10 ng/ml), or TGF-β alone were injected intradermally on the back of mice in a total volume of 100 μl 1×PBS. Mice were injected in two different skin sites and sacrificed one week post-injection. Skin surrounding the injection site was harvested and fixed in 10% formalin prior to embedding in paraffin.
(§2) Six μm sections of paraffin-embedded human and mouse skin tissues were stained with hematoxylin and eosin (H&E). In some experiments, sections were stained with Masson trichrome which identifies collagens. Images were taken on a Nikon Eclipse 800 microscope. The thickness of the dermis was measured in 6 random fields of each section using the image/J® software. Data are shown in arbitrary units.
E4, a peptide representing the carboxy terminus of human endostatin, can attenuate fibrosis triggered by multiple fibrogenic factors. The anti-fibrotic effects of E4 can be detected whether administered concomitantly with or following the fibrogenic trigger. The efficacy of E4 was confirmed in […] pre-clinical models of fibrosis: a) bleomycin-induced dermal fibrosis in vivo in mouse skin, b) TGF-β induced dermal fibrosis in mouse skin, and c) bleomycin-induced pulmonary fibrosis. E4 peptide or a control peptide (E1; representing the amino terminal region of endostatin) were administered at the same time as TGF-β or bleomycin or 3-4 days following TGF-β or bleomycin. Mice were sacrificed one and two weeks after TGF-β-initiation of dermal fibrosis, and two and three weeks after bleomycin-induced pulmonary fibrosis. Two different modes of administration of the E4 peptide were also tested. It was confirmed that intraperitoneal and intratracheal administration was effective. The amount of E4 that was administered ws 10 μg/ml in a total volume of 100 μl for skin and IP injections and 50 μl for IT administration.

human skin explants = assay: Ex vivo human skin fibrosis organ culture, dermal thickness; format: cell-based; settings: for dermal thickness, baseline effect: injected alone without TGF-β, rE 1, 5, 10 μg/ml, peptides 10 μg/ml
Description: Human abdominal skin was obtained from corrective plastic surgery. As previously described (Yasuoka et al., The Open Rheumatol J 2008; 2:17-22), subcutaneous fat tissue was removed uniformly and skin tissue was cut into 1.5 cm×1.5 cm sections. The following were injected intradermally in a total volume of 100 μl 1×PBS: rE alone (1-10 μg/ml), endostatin peptides alone (10 μg/ml), rE or endostatin peptides (1-20 μg/ml) in combination with TGF-β (10 ng/ml), and TGF-β alone (10 ng/ml). In some experiments, human skin was first injected with TGF-β for 48 h followed by recombinant endostain (rE) administration in the same injection site as TGF-β. Explants containing complete epidermal and dermal layers were cultured in an air liquid interface with the epidermal and keratin layers side up and exposed to air. The culture medium was replaced every other day. After 1 or 2 weeks, skin tissue corresponding to an area with 8-mm diameter centered around the injection site was harvested using disposable 8-mm Acu Punch® (Acuderm inc., Lauderdale, Fla.). Skin tissue was fixed in 10% formalin prior to embedding in paraffin.
as §2

[2] = system: human primary skin fibroblasts; assay: TGF-β-induced ECM production in primary skin (dermal) fibroblasts, western blot; format: cell-based; settings: dermal fibroblasts from healthy controls, SSc or morphea patients
Description: as §1
Cellular lysates were obtained from cultured fibroblasts as previously described (Pilewski et al., Am J Pathol 2005; 166:399-407). […] Cellular lysates were analyzed by western blot. Signals were detected following incubation with horseradish peroxidase-conjugated secondary antibody and chemiluminescence (Perkin Elmer Life Sciences, Inc., Boston, Mass.). The intensity of individual bands with expected molecular sizes was semi-quantitatively analyzed using the image/J® software available at on the internet (/rsb.info.nih.gov/ij/index.html), and normalized to individual GAPDH intensity. […]

[3] = system: Human umbilical vein endothelial cells (HUVECs); assay: Tubular formation assay in Matrigel; format: cell-based; settings: 50 nM, 24 hours
Description: The ability of endostatin peptide to inhibit angiogenesis was examined in tubular formation assay using Matrigel® culture. Human umbilical vein endothelial cells (HUVECs) were maintained in endothelial cell basal medium-2 (EBM-2; Clonetics, San Diego, Calif.) supplemented with EBM-2 MV SingleQuots®. HUVECs (5×10^4) were cultured in duplicate on 24-well Matrigel® plates (BD Biosciences, San Diego, Calif.) alone, or in the presence of rE or E4 peptide (50 nM) in EBM-2 at 37° C. DMSO was used as vehicle control. After 24 hours, images were captured using a […] microscope. The degree of cord formation was quantified by measuring the area occupied by tubes in 6 random fields per well. Three independent experiments were performed.

[4] = cited from earlier work

With “H-^1HSHRDFQPVLHLVALNSPLSGGMRGIRGADFQCFQQARAVGLAGT^45-OH (H-HSHRDFQPVLHLVALNSPLSGGMRGIRGADFQCFQQARAVGLAGT-OH; UniProt P39060 1572-1616, looked up, fragment) [E1, human endostatin fragment, amino acids 1-45; amino terminal control peptide]” the “FN and Col1α1 levels/production” value [1] was “had no effect” and the “TGF-β-induced dermal fibrosis (dermal thickness)” value (mouse skin) was “did not alter”.

For “H-^71IVNLKDELLFPSWEALFSGSEGPLKPGARIFSFDGKDVLRHPTWP^115-OH (H-IVNLKDELLFPSWEALFSGSEGPLKPGARIFSFDGKDVLRHPTWP-OH; UniProt P39060 1642-1686, looked up, fragment) [E2, human endostatin fragment, amino acids 71-115]”, the “TGF-β-induced dermal fibrosis (dermal thickness)” value (mouse skin) was “significantly reduced”.

With “H-^133SYCETWRTEAPSATGQASSLLGGRLLGQSAASCHHAYIVLCIENSFMT^180-OH (H-SYCETWRTEAPSATGQASSLLGGRLLGQSAASCHHAYIVLCIENSFMT-OH; cysteine pairing not given here; UniProt P39060 1704-1751, looked up, fragment) [E3, human endostatin fragment, amino acids 133-180]” the “dermal thickness, baseline effect” value (human skin explants) was “tendency towards reduction”, the “development of fibrosis as measured by dermal thickness” value (human skin explants; peptides 10 μg/ml with TGF-β 10 ng/ml, vs TGF-β alone) was “significantly abolished” and the “TGF-β-induced dermal fibrosis (dermal thickness)” value (mouse skin) was “prevented”.

B1: full-length recombinant human endostatin (protein, UniProt P39060 1572-1754, looked up)
Endostatin: HSHRDFQPVLHLVALNSPLSGGMRGIRGADFQCFQQARAVGLAGTFRAFLSSRLQDLYSIVRRADRAAVPIVNLKDELLFPSWEALFSGSEGPLKPGARIFSFDGKDVLRHPTWPQKSVWHGSDPNGRRLTESYCETWRTEAPSATGQASSLLGGRLLGQSAASCHHAYIVLCIENSFMTASK
modifications: Endostatin
notes: full-length recombinant human endostatin purchased from Sigma-Aldrich
In the case of B1, the “FN and Col1α1 levels/production” value [1] is reported as “dramatically reduced”, the “TGF-β-induced ECM production (FN, Col1α1)” value [2] is reported as “reduced” and the “inhibition of tubular structure formation” value [3] is reported as “significant”. The “TGF-β-induced dermal fibrosis, delayed treatment” value (human skin explants; injected 2 days after TGF-β administration) was “significantly ameliorated”, the “dermal thickness, baseline effect” value (human skin explants) was “tendency towards reduction” and the dermal thickness (human skin explants; rE 1, 5, 10 μg/ml injected simultaneously with TGF-β 10 ng/ml, one week, dose-dependent) was “significantly reduced”.

B2: ENDSTAR: recombinant human endostatin purified from E. coli containing an additional nine-amino acid sequence, his-tagged; approved for non-small-cell lung cancer in China (protein, UniProt P39060 1572-1754, looked up)
Endostatin: HSHRDFQPVLHLVALNSPLSGGMRGIRGADFQCFQQARAVGLAGTFRAFLSSRLQDLYSIVRRADRAAVPIVNLKDELLFPSWEALFSGSEGPLKPGARIFSFDGKDVLRHPTWPQKSVWHGSDPNGRRLTESYCETWRTEAPSATGQASSLLGGRLLGQSAASCHHAYIVLCIENSFMTASK
modifications: Endostatin additional nine-residue His tag
notes: approved for non-small-cell lung cancer in China
In the case of B2, the half-life [4] is given as “short”.
